Results from the supplement of paper PMC9112550, “Optimization of the antimicrobial peptide Bac7 by deep mutational scanning” (BMC Biology, 2022).

System: Escherichia coli TOP10
Assay: shrunken log2 fold change of peptide-encoding DNA abundance (4.5 h post-induction vs induction); higher = less antimicrobial activity (less host growth inhibition)
Details: time post-induction: 4.5 h; library: site-saturation at positions 5, 18, 19, 20
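Also: peptides expressed intracellularly from a pBAD plasmid library in pooled LB shake-flask culture, induced with 0.3% L-arabinose, DNA abundance read by NGS, three biological replicates, DESeq2 with apeglm shrinkage.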

Sequence	shrunken log2 fold change
RRIRERPPRLPRPRPRPWTHPRP	-0.0081
RRIRTRPPRLPRPRPRPRPLPRP	0.295
RRIRHRPPRLPRPRPRPYTWPRP	-1.02
RRIRARPPRLPRPRPRPINPPRP	0.0479
RRIRRRPPRLPRPRPRPWFQPRP	-0.0671
RRIRRRPPRLPRPRPRPVMYPRP	-0.127
RRIRLRPPRLPRPRPRPLGQPRP	0.0405
RRIRDRPPRLPRPRPRPMLHPRP	0.202
RRIRDRPPRLPRPRPRPTPWPRP	0.66
RRIRLRPPRLPRPRPRPRDYPRP	-0.00546
RRIRIRPPRLPRPRPRPRGEPRP	0.0673
RRIRDRPPRLPRPRPRPRNPPRP	-0.0578
RRIRSRPPRLPRPRPRPAELPRP	0.0682
RRIRPRPPRLPRPRPRPKMVPRP	0.0319
RRIRNRPPRLPRPRPRPMTMPRP	0.0125
RRIRYRPPRLPRPRPRPLKQPRP	-0.0485
RRIRGRPPRLPRPRPRPGNTPRP	0.171
RRIRWRPPRLPRPRPRPRLPPRP	0.471
RRIRVRPPRLPRPRPRPEHEPRP	-0.12
RRIRHRPPRLPRPRPRPTRPPRP	0.234
RRIRYRPPRLPRPRPRPDVAPRP	0.105
RRIRHRPPRLPRPRPRPMILPRP	-0.0484

Sequence	shrunken log2 fold change
RRIRARPPRLPRPRPRPKESPRP	0.602
RRIRTRPPRLPRPRPRPFNSPRP	-0.127
RRIRRRPPRLPRPRPRPPFKPRP	0.321
RRIRYRPPRLPRPRPRPSGFPRP	-0.99
RRIRFRPPRLPRPRPRPAWFPRP	0.122
RRIRMRPPRLPRPRPRPIDAPRP	0.616
RRIRQRPPRLPRPRPRPPDWPRP	0.34
RRIRNRPPRLPRPRPRPIDFPRP	-0.413
RRIRWRPPRLPRPRPRPYPKPRP	0.11
RRIRFRPPRLPRPRPRPEICPRP	0.172
RRIRARPPRLPRPRPRPGDPPRP	0.971
RRIRYRPPRLPRPRPRPNNKPRP	-1.17
RRIRYRPPRLPRPRPRPRHGPRP	-0.0607
RRIRKRPPRLPRPRPRPNMEPRP	-0.0503
RRIRRRPPRLPRPRPRPYRKPRP	0.0779
RRIRGRPPRLPRPRPRPLPVPRP	0.572
RRIRARPPRLPRPRPRPSICPRP	0.154
RRIRIRPPRLPRPRPRPRDLPRP	0.067
RRIRMRPPRLPRPRPRPTHTPRP	1.03
RRIRRRPPRLPRPRPRPGYLPRP	-0.12
RRIRFRPPRLPRPRPRPLVYPRP	-0.631
RRIRQRPPRLPRPRPRPPSEPRP	-0.0213

Sequence	shrunken log2 fold change
RRIRDRPPRLPRPRPRPWHHPRP	-0.179
RRIRKRPPRLPRPRPRPPSPPRP	0.588
RRIRRRPPRLPRPRPRPNPCPRP	0.0776
RRIRNRPPRLPRPRPRPAPVPRP	0.406
RRIRARPPRLPRPRPRPSRVPRP	2.84
RRIRLRPPRLPRPRPRPWCAPRP	-0.0114
RRIRPRPPRLPRPRPRPVPGPRP	0.202
RRIRQRPPRLPRPRPRPTIYPRP	-0.552
RRIRFRPPRLPRPRPRPCPSPRP	-0.0894
RRIRHRPPRLPRPRPRPVSPPRP	0.183
RRIRIRPPRLPRPRPRPHGIPRP	-0.0115
RRIRMRPPRLPRPRPRPIPAPRP	0.788
RRIRFRPPRLPRPRPRPFPAPRP	-0.132
RRIRGRPPRLPRPRPRPEFRPRP	0.634
RRIRFRPPRLPRPRPRPAPKPRP	0.379
RRIRDRPPRLPRPRPRPMCKPRP	0.108
RRIRKRPPRLPRPRPRPATWPRP	0.573
RRIRARPPRLPRPRPRPWMRPRP	0.263
RRIRHRPPRLPRPRPRPNSIPRP	-0.0178
RRIRRRPPRLPRPRPRPEDRPRP	-0.154
RRIRFRPPRLPRPRPRPTDLPRP	0.15
RRIRNRPPRLPRPRPRPPMTPRP	1.77

Sequence	shrunken log2 fold change
RRIRWRPPRLPRPRPRPAINPRP	0.185
RRIRVRPPRLPRPRPRPQTEPRP	-0.134
RRIRHRPPRLPRPRPRPITDPRP	-0.229
RRIRTRPPRLPRPRPRPAWMPRP	0.307
RRIRSRPPRLPRPRPRPIHSPRP	-0.567
RRIRWRPPRLPRPRPRPTYSPRP	-0.163
RRIRARPPRLPRPRPRPNHAPRP	0.209
RRIRIRPPRLPRPRPRPEFAPRP	0.452
RRIRGRPPRLPRPRPRPTSHPRP	0.64
RRIRTRPPRLPRPRPRPWTYPRP	-0.00992
RRIRYRPPRLPRPRPRPCIQPRP	-0.172
RRIRQRPPRLPRPRPRPNVNPRP	-0.543
RRIRYRPPRLPRPRPRPIYTPRP	-0.943
RRIRHRPPRLPRPRPRPMCTPRP	-0.696
RRIRLRPPRLPRPRPRPSPDPRP	0.164
RRIRSRPPRLPRPRPRPPMSPRP	-0.0301
RRIRVRPPRLPRPRPRPLVQPRP	-0.137
RRIRIRPPRLPRPRPRPEQAPRP	0.1
RRIRRRPPRLPRPRPRPKNNPRP	-0.0641
RRIRQRPPRLPRPRPRPFVRPRP	-0.0842
RRIRMRPPRLPRPRPRPIPVPRP	0.0294
RRIRQRPPRLPRPRPRPHESPRP	-0.126

Sequence	shrunken log2 fold change
RRIRYRPPRLPRPRPRPVWEPRP	-0.3
RRIRKRPPRLPRPRPRPSIMPRP	-0.195
RRIRMRPPRLPRPRPRPTCTPRP	0.963
RRIRFRPPRLPRPRPRPDCVPRP	-0.0904
RRIRERPPRLPRPRPRPCEQPRP	-0.0101
RRIRDRPPRLPRPRPRPPVQPRP	0.104
RRIRVRPPRLPRPRPRPMTMPRP	-0.0831
RRIRPRPPRLPRPRPRPHSTPRP	-0.583
RRIRMRPPRLPRPRPRPGFKPRP	0.46
RRIRIRPPRLPRPRPRPTHKPRP	0.201
RRIRHRPPRLPRPRPRPRSGPRP	-0.0415
RRIRYRPPRLPRPRPRPHMNPRP	-1.2
RRIRMRPPRLPRPRPRPSWFPRP	0.0112
RRIRHRPPRLPRPRPRPKHRPRP	0.376
RRIRFRPPRLPRPRPRPRQIPRP	0.0287
RRIRKRPPRLPRPRPRPDETPRP	3.04
RRIRWRPPRLPRPRPRPHSQPRP	0.0984
RRIRKRPPRLPRPRPRPMGAPRP	0.414
RRIRQRPPRLPRPRPRPSTVPRP	-0.534
RRIRPRPPRLPRPRPRPLRPPRP	0.726
RRIRSRPPRLPRPRPRPAGGPRP	0.529
